Consider 19 molecules from PMC10287707.

Series [1] has as its target T1, TIA1 RRM2_3 (human, UniProt P31483-2 93-274).
T1 sequence: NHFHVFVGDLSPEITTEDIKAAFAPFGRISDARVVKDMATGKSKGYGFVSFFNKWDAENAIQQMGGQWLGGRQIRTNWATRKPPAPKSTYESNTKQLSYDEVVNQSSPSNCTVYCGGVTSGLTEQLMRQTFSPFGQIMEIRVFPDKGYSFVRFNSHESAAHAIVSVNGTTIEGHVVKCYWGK
The series is described as follows: EMSA; EMSA: 10 mM sodium phosphate pH 6.5, 50 mM NaCl, 1 mM DTT, 1 U/ul SUPERase-In, room temperature 20 min, native 1.2% agarose; RNA annealed in 10 mM Tris-HCl pH 7.5, 100 mM KCl. The settings on record: protein: recombinant; tags: His6-SUMO removed by SUMO protease; label: 5'-Cy3; hairpin. For orientation: Mobility shift assays separate free from complexed probe on a gel.

A further series deals with T2, TIA1 RRM2-3 (Homo sapiens, UniProt P31483-2 93-274).
T2 sequence: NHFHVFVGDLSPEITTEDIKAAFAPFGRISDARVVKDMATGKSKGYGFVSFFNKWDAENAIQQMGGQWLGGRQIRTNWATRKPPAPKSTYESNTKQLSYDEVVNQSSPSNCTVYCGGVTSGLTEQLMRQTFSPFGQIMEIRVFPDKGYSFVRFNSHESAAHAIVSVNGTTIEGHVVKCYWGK
The series is described as follows: EMSA; 10 mM sodium phosphate pH 6.5, 50 mM NaCl, 1 mM DTT; room temperature, 20 min; 1.2% agarose; protein 0.1-10 uM; RNA annealed in 10 mM Tris pH 7.5, 100 mM KCl. To be noted: tags: His6-SUMO (cleaved; BamHI linker Ser or Gly-Ser may stay); label: 5' Cy3.

Series [2] has as its target T1, TIA1 RRM2_3. The series is described as follows: EMSA; EMSA: 10 mM sodium phosphate pH 6.5, 50 mM NaCl, 1 mM DTT, 1 U/ul SUPERase-In, room temperature 20 min, native 1.2% agarose; RNA annealed in 10 mM Tris-HCl pH 7.5, 100 mM KCl. To be noted: protein: recombinant, tags: His6-SUMO removed by SUMO protease, label: 5'-Cy3, hairpin.

Take UGUUCUCUGAACGAACUUUAA (structured_RNA) [SL3 A68G]: in the series with TIA1 RRM2_3 [1], the binding signal was 0.09 ± 0.1 kcal/mol ddG vs WT SL3. The molecule also showed a Kd with TIA1 RRM2-3 of 900 ± 110 nM.
Consider UGUUCUCUAAACGAACU (structured_RNA) [SL3-TL1], for which the Kd with TIA1 RRM2_3 [2] (1-nt 3' tail) came out at 2860 ± 550 nM.
As to UGUUCUCUCAACGAACUUUAA (structured_RNA) [SL3 A68C], the binding signal with TIA1 RRM2_3 [1] was -0.04 ± 0.1 kcal/mol ddG vs WT SL3. Besides, the Kd with TIA1 RRM2-3 stood at 730 ± 80 nM.
On to UGUUCUCUAAACGAACGGGAA (structured_RNA) [SL3-TL-G3], for which the affinity with TIA1 RRM2-3, expressed as Kd, was 2770 ± 630 nM.
Take UGUUCUCUACACGAACUUUAA (structured_RNA) [SL3 A69C]: in the series with TIA1 RRM2_3 [2], the Kd was determined as 420 ± 40 nM.
As to UGUUCUCUAAACGAACAUUAA (structured_RNA) [SL3 U76A], in the series with TIA1 RRM2_3 [1], the binding signal is 1.22 ± 0.2 kcal/mol ddG vs WT SL3. Besides, in the series with TIA1 RRM2-3, the Kd came out at 6160 ± 1850 nM.
In the same order, the values of UGUUCUCUAAACGAACUGUAA (structured_RNA) [SL3 U77G] are 1.18 ± 0.17 kcal/mol ddG vs WT SL3 and 5770 ± 1460 nM.
For UGUUCCCCCCCCGAACUUUAA (structured_RNA) [SL3-HP-C7], the Kd with TIA1 RRM2_3 [2] stood at 1950 ± 440 nM.
In the case of UGUUCUCUAAACGAACUUCAA (structured_RNA) [SL3 U78C], the Kd with TIA1 RRM2_3 [2] and in the series with TIA1 RRM2-3 was 1340 ± 190 nM in each case.
For the molecule UGUUCUCUAAACGAACUAUAA (structured_RNA) [SL3 U77A], in the series with TIA1 RRM2_3 [1], the binding signal came out at 1.05 ± 0.2 kcal/mol ddG vs WT SL3. The molecule further displayed a Kd with TIA1 RRM2-3 of 4660 ± 1540 nM.
With UGUUCUAAGAACUUUAA (structured_RNA) [SL3-HP3], the Kd with TIA1 RRM2_3 [2] (3-nt loop) amounted to 3870 ± 1060 nM.
Turning to UGUUCUCUAAACGAACGUUAA (structured_RNA) [SL3 U76G], in the series with TIA1 RRM2_3 [1], the binding signal is 0.94 ± 0.21 kcal/mol ddG vs WT SL3. Further, the Kd with TIA1 RRM2-3 is 3870 ± 1250 nM.
Taken in the same sequence, the figures for UGUUCUCUAAACGAACUUAAA (structured_RNA) [SL3 U78A] were 1.34 ± 0.19 kcal/mol ddG vs WT SL3 and 7540 ± 2120 nM.
For the molecule UGGGCUCUAAACGCCCUUUAA (structured_RNA) [SL3-GC], the Kd with TIA1 RRM2_3 [2] is 5650 ± 1700 nM.
Same read-out and setting: in the case of UGUUCUCUUAACGAACUUUAA (structured_RNA) [SL3 A68U] it was 460 ± 50 nM; in that of UGUUCUUUUUUUGAACUUUAA (structured_RNA) [SL3-HP-U7], 540 ± 30 nM.
As to UGUUCUCCAAACGAACUUUAA (structured_RNA) [SL3 U67C], the binding signal with TIA1 RRM2_3 [1] worked out at 0.85 ± 0.21 kcal/mol ddG vs WT SL3. In the series with TIA1 RRM2-3, this molecule displayed a Kd of 3340 ± 1040 nM.
Taken in the same sequence, the figures for UGUUCUCUAAACGAACUCUAA (structured_RNA) [SL3 U77C] were 0.29 ± 0.11 kcal/mol ddG vs WT SL3 and 1280 ± 180 nM.
Consider UGUUCUCUAAACGAACCCCAA (structured_RNA) [SL3-TL-C3], for which the Kd with TIA1 RRM2-3 was 2220 ± 360 nM.

The term Kd denotes the constant that tells how readily two partners part at equilibrium.
